Test results published in article PMC5365139.

Experiments:
Assay in all cases: fluorescence anisotropy
InrS H21L = molecular target: T1, InrS H21L (Synechocystis PCC 6803, UniProt Q55554 61-167, H81L)
T1 sequence: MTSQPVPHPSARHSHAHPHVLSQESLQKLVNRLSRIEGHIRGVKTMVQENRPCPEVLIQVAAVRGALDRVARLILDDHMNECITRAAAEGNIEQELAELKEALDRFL

InrS = molecular target: T2, InrS (Synechocystis PCC 6803, UniProt Q55554)
T2 sequence: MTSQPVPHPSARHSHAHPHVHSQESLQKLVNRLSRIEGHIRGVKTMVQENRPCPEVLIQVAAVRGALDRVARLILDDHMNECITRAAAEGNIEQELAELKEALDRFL

InrS H21E = molecular target: T3, InrS H21E (Synechocystis PCC 6803, UniProt Q55554 61-167, H81E)
T3 sequence: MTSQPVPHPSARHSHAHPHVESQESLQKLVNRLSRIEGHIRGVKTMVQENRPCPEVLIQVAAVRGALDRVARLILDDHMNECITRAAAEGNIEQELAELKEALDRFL

Measured: binding result

B1: nikProFA (dsDNA)
DNA 1: AAATCCATATCCCCCTTCCCCCCAGAGGGTATT
DNA 2: AATACCCTCTGGGGGGAAGGGGGATATGGATTT
binds: InrS H21L | InrS | InrS H21E
